This note sets out measurements from paper PMC3268813.

Experiment [1] deals with synthetic phospho-S463 CRN2 coiled coil peptide (human) (UniProt Q9ULV4). The experiment can be described thus: SEC-MALS.
Experiment [2] has the same target. The experiment can be described thus: small-angle X-ray scattering.

“synthetic phospho-S463 CRN2 coiled coil peptide (from UniProt Q9ULV4 435-474)”: the stoichiometry N in experiment [1] and in experiment [2] was 3 each time.
